Assays:
[1] = molecular target: T1, LRRC15 on the surface of LRRC15+ cells (SAOS-2, U87MG) (UniProt Q8TF66 22-581, limits assumed); experiment: cell-based or functional assay
T1 sequence (looked up): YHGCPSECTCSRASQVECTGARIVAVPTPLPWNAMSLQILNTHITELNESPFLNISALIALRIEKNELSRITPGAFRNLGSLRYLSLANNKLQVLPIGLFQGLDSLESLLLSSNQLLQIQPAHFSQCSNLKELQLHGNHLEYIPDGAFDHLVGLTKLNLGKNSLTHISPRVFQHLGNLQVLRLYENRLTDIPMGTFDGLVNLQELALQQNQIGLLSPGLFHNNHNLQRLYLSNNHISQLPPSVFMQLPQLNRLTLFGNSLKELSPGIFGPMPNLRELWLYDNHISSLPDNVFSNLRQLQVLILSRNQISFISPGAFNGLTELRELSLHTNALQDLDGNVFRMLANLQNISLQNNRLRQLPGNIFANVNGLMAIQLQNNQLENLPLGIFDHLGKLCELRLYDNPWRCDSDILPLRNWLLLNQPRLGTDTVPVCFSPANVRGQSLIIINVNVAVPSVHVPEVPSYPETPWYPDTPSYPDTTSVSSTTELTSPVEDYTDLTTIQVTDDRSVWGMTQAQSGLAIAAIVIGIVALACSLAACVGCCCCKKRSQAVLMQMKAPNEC

[2] = molecular target: T2, Human LRRC15 Protein, His Tag (Acro Biosystems) (human, UniProt Q8TF66 22-538, limits assumed); experiment: BLI (Octet), Ab on anti-human Fc sensor, LRRC15 associated at pH 7.4
T2 construct: not shown: His tag
T2 sequence (looked up): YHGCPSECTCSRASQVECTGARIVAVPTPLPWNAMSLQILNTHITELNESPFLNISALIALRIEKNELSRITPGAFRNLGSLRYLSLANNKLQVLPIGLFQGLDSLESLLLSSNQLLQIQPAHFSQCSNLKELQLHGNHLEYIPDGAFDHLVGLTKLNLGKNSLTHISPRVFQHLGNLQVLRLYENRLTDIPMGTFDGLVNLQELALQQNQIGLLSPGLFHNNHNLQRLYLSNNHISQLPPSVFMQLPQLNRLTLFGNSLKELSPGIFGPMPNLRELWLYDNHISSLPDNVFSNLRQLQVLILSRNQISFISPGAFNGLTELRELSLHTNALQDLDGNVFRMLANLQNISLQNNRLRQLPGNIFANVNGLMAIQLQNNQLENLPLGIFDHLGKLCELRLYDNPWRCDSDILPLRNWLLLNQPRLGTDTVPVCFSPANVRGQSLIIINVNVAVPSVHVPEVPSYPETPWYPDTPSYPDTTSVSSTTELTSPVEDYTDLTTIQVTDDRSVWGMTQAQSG
Protocol: For each individual plot, antigen binding proteins were captured on anti-human Fc biosensors and associated with LRRC15 at pH 7.4. Dissociation was at pH 7.4 (black) or pH 5.4 (grey). Major X-axis ticks=100 seconds, with left dashed vertical line=0 seconds. Major Y-axis ticks=0.5 nm and octet plots are shown MYT5712 and MYT6080-MYT6121.
After allowing for a period of protein expression, cell culture supernatants are collected, quantified, and the pH dependence of the variant is evaluated using biolayer interferometry (BLI) or other methods known to the art. Briefly, cell culture supernatants are normalized to an antibody expression level of 50 μg/mL, and captured on an anti-human Fc sensor (Forte Bio). A baseline is established using 1× kinetics buffer (Forte Bio), and the sensor is associated with 100 nM of LRRC15 in 1×PBS at pH 7.4 for 300 sec to generate an association curve. In the dissociation phase, the antibody-antigen complex on the sensor is exposed to 1×PBS at either pH 5.5 or pH 7.4 for 300-500 sec. […]

B1: Samrotamab V205C ADC (antibody, part only; not given: V205C light chain and payload, V domains shown, part only)
VH: EVQLVQSGAEVKKPGASVKVSCKASGYKFSSYWIEWVKQAPGQGLEWIGEILPGSDTTNYNEKFKDRATFTSDTSINTAYMELSRLRSDDTAVYYCARDRGNYRAWFGYWGQGTLVTVSS
B1 was tested, and the 20 nM Efficacy (cytotoxicity of candidates against SAOS-2 cells) [1] was 16.4.

B2: MYT8511 (antibody, V domains shown)
VH: QQQLVESGGGLVKPGASLTLTCKASGHHFSGSYWICWVRQAPGKGLEWIGCHNGGSLDITYYASWAKGRFTISKASSTTVTLQKTSLTAADTATYFCASDTSYTAYGNFYFNLWGPGTLVTVSS
VL: AQVLTQTASPVSAAVGGTVTINCQSSQSVLNNNWLAWYQQKPGQPPKLLIYDASSLASGVPSRFKGSGSGTQFTLTISDLESDDAATYYCQGEFSCGSADCNAFGGGTEVVVKG
notes: Rabbit 24D9 VH combination variant; also called 24D9 VH combo F27H, S28H, I52H
B2: no binding (tested: 50 nM) [2].
